Results taken from patent US20250346890A1, “LEUKEMIA TREATMENT” (Deutsches Krebsforschungszentrum, priority 2019, published 2025).

How the values were obtained:
LGR4 = molecular target: T1, LGR4 (Xenopus tropicalis, UniProt B0BLW3); test: Cell surface binding assay in HEK293T cells transfected with LGR4
T1 construct: expressed in transfected cells; host or cells: HEK293T
T1 sequence (B0BLW3 22-955): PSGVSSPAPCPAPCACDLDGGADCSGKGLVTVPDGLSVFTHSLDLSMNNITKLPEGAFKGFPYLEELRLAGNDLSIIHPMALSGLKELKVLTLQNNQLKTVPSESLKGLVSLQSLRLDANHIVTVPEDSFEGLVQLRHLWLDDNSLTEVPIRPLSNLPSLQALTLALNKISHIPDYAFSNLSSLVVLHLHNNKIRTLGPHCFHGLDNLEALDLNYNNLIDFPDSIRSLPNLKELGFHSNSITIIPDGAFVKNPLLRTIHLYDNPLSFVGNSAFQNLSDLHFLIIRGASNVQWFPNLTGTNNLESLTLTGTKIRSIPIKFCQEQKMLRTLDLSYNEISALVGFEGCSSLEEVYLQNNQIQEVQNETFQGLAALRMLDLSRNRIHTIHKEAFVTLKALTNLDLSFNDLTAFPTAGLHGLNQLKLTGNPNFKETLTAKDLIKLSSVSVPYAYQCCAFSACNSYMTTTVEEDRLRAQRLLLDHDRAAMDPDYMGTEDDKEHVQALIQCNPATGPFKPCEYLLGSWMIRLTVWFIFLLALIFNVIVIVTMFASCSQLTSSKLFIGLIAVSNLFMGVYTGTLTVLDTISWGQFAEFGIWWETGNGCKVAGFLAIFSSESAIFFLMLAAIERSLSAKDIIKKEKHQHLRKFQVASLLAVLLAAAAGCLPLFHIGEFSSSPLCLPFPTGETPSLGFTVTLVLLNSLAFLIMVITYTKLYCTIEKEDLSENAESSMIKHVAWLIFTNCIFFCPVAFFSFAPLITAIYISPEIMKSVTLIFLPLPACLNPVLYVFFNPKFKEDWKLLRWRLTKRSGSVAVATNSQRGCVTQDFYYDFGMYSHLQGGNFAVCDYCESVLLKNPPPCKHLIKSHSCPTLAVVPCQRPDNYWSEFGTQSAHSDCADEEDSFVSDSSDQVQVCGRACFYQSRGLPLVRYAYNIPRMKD
Experimental: Cell surface binding assays were carried essentially out as previously described (Dosch et al. (1997), Development 124, 2325-2334). In brief, human ALK3-HA and Xenopus tropicalis LGR4 DNA were transfected in HEK293T cells, and incubated with 1.5 U ml^−1 conditioned media for 3 hours on ice. After several washes and crosslinking, cells were treated with 2 mM Levamisole for 20 min to inactivate endogenous AP activities and developed with BM-Purple (Sigma 11442074001). Cells were mounted with Fluoromount G. Images were obtained using LEICA DMIL microscope/Canon DS126311 camera.

Smad1 = test: Western blot of pSmad1 and tSmad1 in HEPG2 cells; type: cell-based, human
Experimental: Cultured cells were rinsed with cold PBS and lysed in Triton lysis buffer ([…] Tris-Cl, pH 7.5, 1% Triton X-100, 150 mM NaCl, 1 mM EDTA, 1 mM EGTA, 1 mM β-glycerophosphate, 1 mM Na3 VO4) or RIPA buffer with complete Protease Inhibitor Cocktail (Roche 11697498001). Lysates were mixed with Laemmli buffer with β-mercaptoethanol and boiled at 95° C. for 5 min to prepare SDS-PAGE samples. Western blot images were acquired with SuperSignal West pico ECL (ThermoFisher 34580) or Clarity Western ECL (Biorad 1705061) using LAS-3000 system (FujiFilm). Quantification of blots was done using ImageJ software.

THP-1 cells = test: Monocyte-macrophage differentiation of THP-1 cells (FACS / qRT-PCR of CD14, CD11B); type: cell-based, human; settings: THP-1 cells, co-treatment of ATRA with RSPO2
Experimental: Cultured cells were lysed in Macherey-Nagel RAI buffer containing 1% β-mercaptoethanol and total RNAs were isolated using NucleoSpin RNA isolation kit (Macherey-Nagel 740955). Reverse transcription and PCR amplification were performed. Primers used in this study are listed in Supplementary Table 1. Graphs show relative gene expressions to GAPDH. […] Statistical analyses were performed using PRISM7 software with unpaired t-test or one-way ANOVA test.
For analyzing macrophage differentiation of THP-1, cells were harvested, pelleted and resuspended in ice-cold blocking buffer (PBS supplemented with 1% BSA and 0.1% NaN3). Cells were treated with Fc Receptor Binding Inhibitor as recommended by the manufacturer (eBioscience 14916173) and stained directly with FITC/APC-conjugated antibodies diluted in blocking buffer or with non-conjugated primary antibodies followed by fluorochrome-labeled secondary antibodies. Isotype-matched antibodies were used as controls. Dead cells were excluded by counterstaining with propidium iodide. For analyzing apoptosis of THP-1, cells were fixed in 4% PFA, permeabilized by MeOH and blocked with PBS supplemented with 1% BSA and 0.1% Tween-20. Cells were stained with anti-active Caspase-3 antibody and fluorochrome-labeled secondary antibody. FACS Samples were analyzed with FACSCalibur or FACSCanto (BD Biosciences). 10,000 events per samples were acquired, and results were processed with Cell Quest or FACSDiva software (BD Biosciences). For BMP4 stimulation, cells were treated with 5 and 25 ng ml^−1 recombinant human BMP4 protein (R&D systems 314-BP). 100, 300 and 1000 nM LDN […] (Tocris 6053) were used for rescue assay. For the THP-1 cell number quantification and differentiation validation in vivo, bone marrow cells were harvested from tibias of NSG mice and red blood cells were removed by ACK Lysing Buffer (Gibco A1049201). Cells were stained and analyzed as above. Here, 50,000 PI-negative events per samples were acquired.
THP-1 cells were treated with 0.3, 1.0 and 3.0 μg ml^−1 goat polyclonal anti-RSPO2 antibodies (R&D systems AF3266) or goat polyclonal GFP antibodies (ABIN 100085). After 48 hours, medium was replaced including fresh antibodies—and incubated another 24 hours. Western blot analysis and FACS analyses were performed as discussed above.
The sequences of shRSPO2 and shControl (Table 1) were synthesized, inserted into the transfer plasmid Tet-pLKO-puro (Addgene 21915) and validated by sequencing. Lentivirus was produced with the 3rd generation lentiviral system according to the protocol available at the Trono lab as described (www.epfl.ch/labs/tronolab/). THP-1 cells were infected with lentivirus with 8 μg ml^−1 Polybrene (Sigma TR-1003) and selected with 0.5 μg ml^−1 puromycin (Calbiochem 540411). Single cell clones were obtained by limiting dilutions. The shRNA expression of clones was validated by monitoring RSPO2 expression after doxycycline treatment (1.0 μg ml^−1) for 3 days.

B1: RSPO2: human R-spondin 2 protein (SEQ ID NO:1); conditioned medium or recombinant (Peprotech 120-43) (protein, listed as Homo sapiens)
chain: MQFRLFSFALIILNCMDYSHCQGNRWRRSKRASYVSNPICKGCLSCSKDNGCSRCQQKLFFFLRREGMRQYGECLHSCPSGYYGHRAPDMNRCARCRIENCDSCFSKDFCTKCKVGFYLHRGRCFDECPDGFAPLEETMECVEGCEVGHWSEWGTCSRNNRTCGFKWGLETRTRQIVKKPVKDTILCPTIAESRRCKMTMRHCPGGKRTPKAKEKRNKKKKRKLIERAQEQHSVFLATDRANQ
LGR binding (LGR4): required the FU domains but not TSP1 | phosphorylation of Smad1 (Smad1): decreased phosphorylation of Smad1 | ATRA-induced Smad1-phosphorylation, ID1 and CD11B expression (THP-1 cells): reverted these effects
